According to patent US20210253725A1 (BIONTECH, published 2021):

T1: CD27 expressed on the cell surface of HT1080_CD27 cells (human, UniProt P26842 20-260)
T1 sequence (looked up): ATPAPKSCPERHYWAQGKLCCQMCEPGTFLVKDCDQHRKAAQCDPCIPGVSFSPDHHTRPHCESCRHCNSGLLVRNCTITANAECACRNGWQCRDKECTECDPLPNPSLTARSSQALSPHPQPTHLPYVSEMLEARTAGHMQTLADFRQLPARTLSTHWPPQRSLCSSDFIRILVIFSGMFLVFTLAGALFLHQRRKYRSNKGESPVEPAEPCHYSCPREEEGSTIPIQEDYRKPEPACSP

T2: CD27 protein (His-tagged, Sino Biological Inc. 10039-H08B1) (human, UniProt P26842 20-192)
T2 construct: bought protein coated on ELISA plates; also called TNFRSF7; not shown: His tag
T2 sequence (looked up): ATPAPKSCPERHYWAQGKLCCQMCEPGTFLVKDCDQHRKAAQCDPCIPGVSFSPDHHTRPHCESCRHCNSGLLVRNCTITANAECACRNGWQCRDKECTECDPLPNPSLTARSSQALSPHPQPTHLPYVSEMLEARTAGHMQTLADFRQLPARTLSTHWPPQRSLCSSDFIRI


What was measured:
[1] = target: T1, CD27 expressed on the cell surface of …; test: cell-based or functional assay
[2] = target: T1, CD27 expressed on the cell surface of …; test: HT1080_CD27 cells, imaging; further: test concentration or dose not given here
[3] = target: T1, CD27 expressed on the cell surface of …; test: cell-based or functional assay; remark: listed apart in the source
[4] = target: T2, CD27 protein (His-tagged, Sino …); test: ELISA, coated His-tagged CD27; further: test concentration or dose not given here
Wherever Functional assay Cross-linked by F(ab′)2 fragment IL-8 is given: test concentration or dose not given here.
Wherever Functional assay IL-8 is given: test concentration or dose not given here.

Binder	EC 50 (IL-8 release, cross-linked) [1] [µg/mL]	also measured
P018.S.06.A.A02 (antibody, V domains shown) VH: QEQLVESGGGLVQPEGSLTLTCTSSGFSLNSNYYISWVRQAPGKGLEWIACIDAGSGSTWYASWVKGRFTISKTSSTTVTLQMTSLTAADTATYFCARDDIGTSYEYYFGLWGPGTLVTVSS VL: DVVLTQTPASVSEPVGGTVTIKCQASQTISSYLAWYQQKSGQPPKLLIYSASTLASGVSSRFKGSGSGTEYTLTISDLESADAATYYCQTYYGSDSYVFGGGTEVVVK	0.575	–
P018.S.09.A.H06 (antibody, V domains shown) VH: QSVEESGGRLVKPDETLTLTCTVSGIDLTSYAMGWVRQAPGEGLEWIGAIGSGGGIYYASWARGRFTISKTSSTTVDLKIPSPTTEDTATYFCARVPQWAYLDLWGQGTLVTVSS VL: AQVLTQTPASVSAAVGGTVTISCQSSESVYKNNYLSWYQQKPGQPPKLLIYDASTLASGVPSRFSGSGSGTQFTLTISGVQSEDAATYYCQGYYGGGIFTFGGGTEVVVK	0.329	–
P018.S.10.A.H02 (antibody, V domains shown) VH: QSLEESGGRLVTPGGSLTLTCTVSGIDLSSYAMGWFRQAPGKGLEYIGIIYSSGSTWFANWVKGRFTISKTSTTVDLKMTSLTTEDTATYFCARYSAADHGDKFKLWGQGTLVTVSS VL: AAVLTQTPSPVSAAVGGTVSISCQSSKNIFDNTRLSWFQQKPGQPPKQLIYGASTLASGVPSRFSGSGSGTQFTLTISGVQSDDAATYYCLGEYSSDSDTSFGGGTEVVVK	0.122	–
P018.S.02.A.G03 (antibody, V domains shown) VH: QSVEESGGRLVTPGTPLTLTCTVSGFSLSSYVMSWVRQAPGKGLEWIGYIDYGGTAYYASWAKGRFTISKTSTTVELKITSPTIEDTATYFCARGGYGGYILVTGLWGPGTLVTVSS VL: DIVMTQTPASVSEPVGGTVTIKCQASQTIISYLSWYQQKPGQPPKLLIYGASTLASGVPSRFKGSGSVTEYTLTISDLESADAATYYCQTYYGGGPFGNGFGGGTEVVVK	0.526	–
P018.S.09.A.E05 (antibody, V domains shown) VH: QSLEESGGRLVTPGTPLTLTCTVSGIDLSRYDMSWVRQAPGKGLEWIGFIGASGSTYYASWVKGRFTISKTSTTVDLKITSPTTEDTATYFCAREETDSRGYYYSLWGPGTPVTVSS VL: ALVMTQTPASVEAAVGGTVTINCQASQSISDLLGWYQQKPGQPPKLLIYDASDLASGVPSRFSGSGSGTEFTLTISGVQSDDAATYYCQQGYSINNVDNAFGGGTEVVVK	0.502	–
P018.S.07.A.G02 (antibody, V domains shown) VH: QSVEESGGRLVTPGTPLTLTCTVSGFSLSSYDMSWVRQAPGKGLEWIGWITTDGGTDYASWAKGRFTVSKASTTVDLKITSPTTEDTATYFCARGYASFNLWGQGTLVTVSS VL: AQVLTQTPSSVSAAVGGTVTINCQSSQSVLSNSYLAWYQQKPGQPPKLLIYAASSLASGVPSRFKGSGSGTQFTLTISDLESDDAATYYCQGTDYSGGWYVAFGGGTEVVVK	0.43	–
P018.S.09.A.C06 (antibody, V domains shown) VH: QSVEESGGRLVTPGTPLTLTCTVSGFSLSTYAMGWVRQAPGKGLEWIGIIYTGGSTYYASWAEGRFTISKTSTTVDLKITSPTPEDTATYFCTRDLGATYDYFDLWGQGTLVTVSS VL: AYDMTQTPASVEVAVGGTVTIKCQASQSISTALAWYQQKPGQRPKLLIYDTSDLASGVPSRFSGSGSGTEFTLTISGVESADAATYYCQQGYRHTNVDNPFGGGTGVVVK	0.221	–
P018.S.10.A.E01 (antibody, V domains shown) VH: QEQLVESGGGLVQPEGSLTLTCTATGIDFSTNYRSCWVRQAPGKGLEWIACIDTDDSDSTYYASWAKGRFTISKTSSTTVTLQMTSLTAADTATYFCTRAYTTSDYAWSFYLWGPGTLVTVSS VL: DLVMTQTPASVEAAVGGTVTIKCQTSQSISKFLNWYQQTPGQPPKLLIYRASTLESGVPSRFEGSGSGTEFTLTISDLESADAATYYCQCTYGGTSGSVWAFGGGTEVVVK	0.722	–
P018.S.05.A.D06 (antibody, V domains shown, V regions on human Ig constant parts; also called AB27_88) VH: QSVEESGGRLVTPGTPLTLTCTVSGFSLSSYWMSWVRQAPGKGLEWIGFIYGGSGDKYYASWAKGRFAISKTSTTVDLKITSPTTEDTATYFCARGGDGDGTYSSLWGQGTLVTVSS VL: AQVLTQTPSPVSAAVGGTVTISCQSSESVAGKNLAWYQQKPGQPPKVLIYGTSNLASRVPSRFRGSGSGTQFTLTISDLESDDAATYYCQGYYSGGIYGFGGGTEVVVE	–	Cellular binding assay [RFU] [2]: 323 RFU; Functional assay Cross-linked by F(ab′)2 fragment IL-8 [3]: 1.23 abs. corr.; Functional assay IL-8 [3]: 0.338 abs. corr.; ELISA [abs. corr.] [4]: 2.93 abs. corr.
P018.S.10.A.H01 (antibody, V domains shown) VH: QEQLEESGGDLVKPGASLTLTCTASGFSFSSDYDMCWVSQAPGKGLEWIACIIGGSSDSTWYASWAKGRFTISKTSSTTVTLQVTGLTAADTATYFCARNVGFSYYDLWGPGTLVTVSS VL: AQVLTQTPSPVSAAVGGTVTINCQASQSLYNNKNLAWYQQKPGQPPKLLIYYASTLASGVSSRFKGSGSGTQFTLTISGVQSDDAATYYCQGEFSCSSGDCFAFGGGTEVVVK	0.431	–
P018.S.09.A.D05 (antibody, V domains shown) VH: QSLEESGGRLVTPGGSLTLTCTVSGIDLSSYAMDWVRQAPGKGLEWIGVIGAGGSTYYASWANGRFTISKTSTTVDLKISSPTTEDTATYFCARDIGGDYSSRYYFSLWGPGTLVTVSS VL: DIVMTQTPASVEAAVGGTVTIKCQASQSTSTALAWYQQKPGQRPKLLIYDSSKLASGVPSRFSGSGSGTEFTLTISGVQSDDAASYYCQQGYNINNVAFGGGTEVVVK	0.561	–
P018.S.02.A.B01 (antibody, V domains shown, V regions on human Ig constant parts; also called AB27_29) VH: QSVEESGGRLVTPGTPLTLTCTVSGMDLSSYSMSWVRQAPGEGLEYIGFIGSSGGTYYASWAKGRFTISRTSTTVDLNITSPTTEDTATYFCARMLAGVYTRLDLWGQGTLVTVSS VL: AQVLTQTPSSVSAAVGGTVTINCQASQSISSSYCSWYQQKPGQPPKLLIYKASTLASGVPSRFKGSGSGTQFTLTISDVQSDDAATYYCAGDFIASSGNAFGGGTEVVVK	–	Cellular binding assay [RFU] [2]: 332 RFU; Functional assay Cross-linked by F(ab′)2 fragment IL-8 [3]: 1.42 abs. corr.; Functional assay IL-8 [3]: 0.538 abs. corr.; ELISA [abs. corr.] [4]: 2.93 abs. corr.
P018.S.10.A.A04 (antibody, V domains shown) VH: QSVEESGGRLVTPGTPLTLTCTVSGIDLSSNVMTWVRQAPGKGLEWIGYIYASATTYYATWAKGRFTISKTSTTVDLKMTSPTTEDTATYFCARERLASRGDYSDLWGQGTLVTVSS VL: AYDMTQTPASVEAAVGGTVTIKCQASESIGDLLAWYQQKPGQPPKLLIYDASDLASGVPSRFKGSGSGTEFTLTISGVESADAATYYCQQGYTTTSNVDNIFGGGTEVVVK	0.335	–
P018.S.04.A.A05 (antibody, V domains shown) VH: QSLEESGGRLVTPGTPLTLTCTASGFTISSYEMGWVRQAPGEGLEYIGWIASGGSTFYASWAKGRFTISRTSTTVDLTITDLRPSDTGTYFCARGYVEFKLWGPGTLVTVSS VL: DIVMTQTPASVSESVGGTVTIKCQASQSIGSYLSWYQQKPGQPPKVLIYRASTLESGVPSRFEGSGSGTQFTLTISDLESADAATYYCQGYHSTSGYVAFGGGTELVVK	0.408	–
P018.S.09.A.H03 (antibody, V domains shown) VH: QSLEESGGRLVTPDESLTLTCTVSGFSLSSNAMIWVRQAPGKGLEWIGIIDTGGSAYYASWAKGRFTISKTSTTVDLKITSPTTEDTATYFCARDRYTDSSGYNLWGQGTLVTVSS VL: DIVMTQTPASVEAAVGGTVTIKCQASQSIGASLAWYKQKPGQPPKLLIYSASWLASGVPSRFKGSGSGTEFTLTISDLASADAATYYCQSYYYRSSSGYGYAFGGGTEVVVK	0.387	–
P018.S.07.A.C04 (antibody, V domains shown) VH: QEQLVESGGGLVQPEGSLTLTCTASGFSFSSRFWICWVRQAPGKGLEWIACIYGGSTSATYDASWAKGRFTISKTSSTTVTLQMTSLTAADTATYFCTRLPTYDAYVFNLWGPGTLVTVSS VL: AIVMTQTPSSKSVPVGATATINCQASESVFSNNYLSWYQQKPGRSPKLLIYEASKLASGVPSRFSGSGSGTQFTLTISDVVSDDAATYYCGGYKSNNVDGYAFGGGTEVVVK	0.801	–
P018.S.10.A.C05 (antibody, V domains shown) VH: QSVEETGGRLVTPGTPLTLTCAASGVSLSGYYAMSWVRQAPGKGLEWIGYLDATGSTYYASWVKGRFIISRPSTTVDLQITSPTIEDTATYFCARGSYDGVGYNWGLWGQGTLVTVSS VL: DIVMTQTPASVSEPVGGTVTIKCQASESIYNGLAWYQQKPGQPPKRLIYGASTLTSGVPSRFKGSGSGTEFTLTISDLESDDAATYYCQSNYGSGSRSNYIFGGGTEVVVK	0.34	–
P018.S.10.A.E04 (antibody, V domains shown) VH: QSLEESGGDLVKPGASLTLTCTASGFSFSSSYWICWVRQAPGKGLEWVACISAPGSGSTFDASWAKGRFTISKTSSTTVTLQMTSLTAADTATYFCARFYAGGSGDYFDLWGPGTLVTVSS VL: QIVMTQTPSSTSEPVGGTVSIKCQASQNIGSYLAWYQQKPGQPPKVLIYTTSDLASGVPSRFKGSGSGTQFTLTISDLESDDAATYYCLGVYGYSSDDVAFGGGTEVVVK	0.234	–
